Measured values as given in the supplement of paper PMC12764529.
± gives the half width of the 95% confidence interval.

Columns and labels:
[1] = folding stability dG unfold from trypsin proteolysis; higher = more stable
Procedure, shortened: (§1)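 Designed mini-proteins (under 80 residues, no cysteine) in a PA-tagged cDNA display construct were digested with trypsin and chymotrypsin. Each protease was used at 11 concentrations (threefold dilutions) plus a no-protease condition, followed by sequencing. K50 was inferred by Bayesian fitting of sequencing counts, and unfolding free energy was derived against a sequence-predicted unfolded-state K50 and a shared folded-state K50, per protease or combined. Only designs with AlphaFold2 dimer inter-PAE above 15 were kept.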

[2] = folding stability dG unfold from chymotrypsin proteolysis; higher = more stable
Procedure, shortened: as §1

[3] = folding stability dG unfold (combined trypsin and chymotrypsin); higher = more stable
Procedure, shortened: as §1

Sequence	folding stability dG unfold [1]	folding stability dG unfold [2]	folding stability dG unfold [3]
EITIRNPNGMEVKKVEFDPPDSTIKFEFRMPDYYVKIEFQIYPVGGGWVIPIKIEIVPIPPTPAQRKKMQES [r1_154_TrROS]	1.44 ± 0.13 kcal/mol	3.4 ± 0.17 kcal/mol	2.85 ± 0.25 kcal/mol
EVETYPDGTVVTTLPPEVTADIPADEPVNLRTLIFDPDGYLYLSTATRTPDGTVTYTVSITPIPVGPELLLS [r1_394_JUSTAS]	1.44 ± 0.029 kcal/mol	1.63 ± 0.083 kcal/mol	1.54 ± 0.077 kcal/mol
GFDEAELKKLLEEKAAELEKKGYKVLKTSIEPVPDGTYGGKIGNKTITHPTPNGLTYSVSVYYEKVSPKKKS [r1_31_JUSTAS]	0.232 ± 0.13 kcal/mol	0.331 ± 0.25 kcal/mol	0.351 ± 0.16 kcal/mol
GFVLIPFRLDDPDVTAGEIAEEVEKALPPEYGPLRLRVFFEDGSVLELEPGEKLGEHFEPDDEILVLVEGDS [r1_56_TrMRF]	1.24 ± 0.042 kcal/mol	1.37 ± 0.12 kcal/mol	1.22 ± 0.14 kcal/mol
GLAPRVYEVDALVTDENGVPRLYRVLVVETPLPDGTYRAVAFARDLDTTETRVLTLVSDRAVIGPDVPLTAS [r1_14_TrMRF]	2.07 ± 0.044 kcal/mol	2.24 ± 0.12 kcal/mol	2.21 ± 0.15 kcal/mol
GMAPKTYTKEVEIKDSSGKPIKYKVTVTETALPDGSSESTITLTDPNSSKTTTINLSSPGKGLTPDDKILLS [r1_14_JUSTAS]	0.562 ± 0.019 kcal/mol	1.09 ± 0.087 kcal/mol	0.899 ± 0.075 kcal/mol
GMIVEIVESPEGTVTLYEVLLPGGTPILVGAADEEKLRERVAKELGVSFEKLKITKTTTLSPEELAALLAAS [r1_119_JUSTAS]	1.4 ± 0.02 kcal/mol	1.73 ± 0.053 kcal/mol	1.66 ± 0.14 kcal/mol
GMSVTSYETDPNTGGPSISISSAPDPKTGLLSAPVTVYDPKTGQSKTINLTATSSEELAAKIAELLPASLLS [r1_156_JUSTAS]	1.39 ± 0.024 kcal/mol	0.166 ± 0.17 kcal/mol	0.97 ± 0.098 kcal/mol
GMVEVTEERFEPETGKRIVTIRAPGRDLTVTFDPSTGIATFYDPSDGRTFTVPFTSLEEAVEAAKELALEES [r1_177_JUSTAS]	3.1 ± 0.07 kcal/mol	4.81 ± 0.11 kcal/mol	4.47 ± 0.11 kcal/mol
GPMTVSTKTSTKTYFDPETGVETVVEPVTVTVTFPTSPTVTYTTTVTTTTKVERLPDGPLRTETTTTTTVSS [r1_296_JUSTAS]	-0.135 ± 0.17 kcal/mol	-0.305 ± 0.38 kcal/mol	0.0169 ± 0.14 kcal/mol
GPPLPVEVDAEVDVVPLPGGPALVVRRPVRFPVTRRIVVVEVVRLPDGSVVARVDVYDPGDGRPRTFTLPLS [r1_261_TrMRF]	0.795 ± 0.04 kcal/mol	2.373 ± 0.021 kcal/mol	1.9 ± 0.043 kcal/mol
GSEIKAGRARSSDGTGRIRVVLEREDGSSVEFELDLPGLPGDTFYLDLPESLPLKAKETWVYVDDKPYPVTS [r1_70_TrMRF]	0.665 ± 0.054 kcal/mol	1.25 ± 0.037 kcal/mol	1.08 ± 0.067 kcal/mol
GVVRPLGDPNGQLSIVATDPEGNLLVKALVPNDEAQVEAAKKELLAAMPGLDEKEVVFSIYDPLTGKTKILS [r1_55_JUSTAS]	1.07 ± 0.1 kcal/mol	1.61 ± 0.025 kcal/mol	1.54 ± 0.12 kcal/mol
GYRPALAVVELGPNSRLLLRPPEGPSVEIEVESPEEALAAALKLLPKDQPLVLEVFDEGKLIETIPIEIPPS [r1_276_TrMRF]	0.973 ± 0.036 kcal/mol	1.87 ± 0.069 kcal/mol	1.55 ± 0.095 kcal/mol
IEEIKNFAKKHGFNVKIEPVKVDSEEEAKEEAEDHEKKNGYPTIIIKNPENGEIVWVIKIRPPPPPPGQPPS [r1_179_TrROS]	2.51 ± 0.22 kcal/mol	3.89 ± 0.17 kcal/mol	3.18 ± 0.31 kcal/mol
IRGMPVEEIKEIARDFFRKHGMKVTTVEIVPTPNGMTQVDIEIEPPDKGRRYRIDIYVPEDGMVQIDIEPYS [r1_460_TrROS]	2.23 ± 0.071 kcal/mol	2.54 ± 0.13 kcal/mol	2.4 ± 0.24 kcal/mol
IVISPSMLRDARRQGIPKELLKKAKNVIIWSSNGNPEWAKELKEWPGVKKIKPVPPGDPDKQKDADHVIHFS [r1_248_TrROS]	-0.554 ± 0.55 kcal/mol	-0.673 ± 0.49 kcal/mol	-0.482 ± 0.29 kcal/mol
KGVVVGPDEPLVSDDGKLVVFPNAQITYDPKTGKPTIAFHVDPEALAQGDPEALKGLRDLAKELNIDELTPS [r1_438_TrMRF]	-0.156 ± 0.1 kcal/mol	1.03 ± 0.044 kcal/mol	0.692 ± 0.12 kcal/mol
